These results are taken from patent US8273855.

What all share (assay): cell-based or functional assay
Assay [1] concerns the target Notch on primary rat oligodendrocytes and oligodendrocyte precursor cells (rat) (UniProt Q07008).
The target of assay [2] is Notch1 of mouse neural stem cells (NSCs) (mouse) (UniProt Q01705).
The target in assay [3] is myc-tagged full-length mouse Notch1 on transfected OLN cells (mouse) (UniProt Q01705).
Chain of myc-tagged full-length mouse Notch1 on transfected OLN cells (mouse) (Q01705 19-2531): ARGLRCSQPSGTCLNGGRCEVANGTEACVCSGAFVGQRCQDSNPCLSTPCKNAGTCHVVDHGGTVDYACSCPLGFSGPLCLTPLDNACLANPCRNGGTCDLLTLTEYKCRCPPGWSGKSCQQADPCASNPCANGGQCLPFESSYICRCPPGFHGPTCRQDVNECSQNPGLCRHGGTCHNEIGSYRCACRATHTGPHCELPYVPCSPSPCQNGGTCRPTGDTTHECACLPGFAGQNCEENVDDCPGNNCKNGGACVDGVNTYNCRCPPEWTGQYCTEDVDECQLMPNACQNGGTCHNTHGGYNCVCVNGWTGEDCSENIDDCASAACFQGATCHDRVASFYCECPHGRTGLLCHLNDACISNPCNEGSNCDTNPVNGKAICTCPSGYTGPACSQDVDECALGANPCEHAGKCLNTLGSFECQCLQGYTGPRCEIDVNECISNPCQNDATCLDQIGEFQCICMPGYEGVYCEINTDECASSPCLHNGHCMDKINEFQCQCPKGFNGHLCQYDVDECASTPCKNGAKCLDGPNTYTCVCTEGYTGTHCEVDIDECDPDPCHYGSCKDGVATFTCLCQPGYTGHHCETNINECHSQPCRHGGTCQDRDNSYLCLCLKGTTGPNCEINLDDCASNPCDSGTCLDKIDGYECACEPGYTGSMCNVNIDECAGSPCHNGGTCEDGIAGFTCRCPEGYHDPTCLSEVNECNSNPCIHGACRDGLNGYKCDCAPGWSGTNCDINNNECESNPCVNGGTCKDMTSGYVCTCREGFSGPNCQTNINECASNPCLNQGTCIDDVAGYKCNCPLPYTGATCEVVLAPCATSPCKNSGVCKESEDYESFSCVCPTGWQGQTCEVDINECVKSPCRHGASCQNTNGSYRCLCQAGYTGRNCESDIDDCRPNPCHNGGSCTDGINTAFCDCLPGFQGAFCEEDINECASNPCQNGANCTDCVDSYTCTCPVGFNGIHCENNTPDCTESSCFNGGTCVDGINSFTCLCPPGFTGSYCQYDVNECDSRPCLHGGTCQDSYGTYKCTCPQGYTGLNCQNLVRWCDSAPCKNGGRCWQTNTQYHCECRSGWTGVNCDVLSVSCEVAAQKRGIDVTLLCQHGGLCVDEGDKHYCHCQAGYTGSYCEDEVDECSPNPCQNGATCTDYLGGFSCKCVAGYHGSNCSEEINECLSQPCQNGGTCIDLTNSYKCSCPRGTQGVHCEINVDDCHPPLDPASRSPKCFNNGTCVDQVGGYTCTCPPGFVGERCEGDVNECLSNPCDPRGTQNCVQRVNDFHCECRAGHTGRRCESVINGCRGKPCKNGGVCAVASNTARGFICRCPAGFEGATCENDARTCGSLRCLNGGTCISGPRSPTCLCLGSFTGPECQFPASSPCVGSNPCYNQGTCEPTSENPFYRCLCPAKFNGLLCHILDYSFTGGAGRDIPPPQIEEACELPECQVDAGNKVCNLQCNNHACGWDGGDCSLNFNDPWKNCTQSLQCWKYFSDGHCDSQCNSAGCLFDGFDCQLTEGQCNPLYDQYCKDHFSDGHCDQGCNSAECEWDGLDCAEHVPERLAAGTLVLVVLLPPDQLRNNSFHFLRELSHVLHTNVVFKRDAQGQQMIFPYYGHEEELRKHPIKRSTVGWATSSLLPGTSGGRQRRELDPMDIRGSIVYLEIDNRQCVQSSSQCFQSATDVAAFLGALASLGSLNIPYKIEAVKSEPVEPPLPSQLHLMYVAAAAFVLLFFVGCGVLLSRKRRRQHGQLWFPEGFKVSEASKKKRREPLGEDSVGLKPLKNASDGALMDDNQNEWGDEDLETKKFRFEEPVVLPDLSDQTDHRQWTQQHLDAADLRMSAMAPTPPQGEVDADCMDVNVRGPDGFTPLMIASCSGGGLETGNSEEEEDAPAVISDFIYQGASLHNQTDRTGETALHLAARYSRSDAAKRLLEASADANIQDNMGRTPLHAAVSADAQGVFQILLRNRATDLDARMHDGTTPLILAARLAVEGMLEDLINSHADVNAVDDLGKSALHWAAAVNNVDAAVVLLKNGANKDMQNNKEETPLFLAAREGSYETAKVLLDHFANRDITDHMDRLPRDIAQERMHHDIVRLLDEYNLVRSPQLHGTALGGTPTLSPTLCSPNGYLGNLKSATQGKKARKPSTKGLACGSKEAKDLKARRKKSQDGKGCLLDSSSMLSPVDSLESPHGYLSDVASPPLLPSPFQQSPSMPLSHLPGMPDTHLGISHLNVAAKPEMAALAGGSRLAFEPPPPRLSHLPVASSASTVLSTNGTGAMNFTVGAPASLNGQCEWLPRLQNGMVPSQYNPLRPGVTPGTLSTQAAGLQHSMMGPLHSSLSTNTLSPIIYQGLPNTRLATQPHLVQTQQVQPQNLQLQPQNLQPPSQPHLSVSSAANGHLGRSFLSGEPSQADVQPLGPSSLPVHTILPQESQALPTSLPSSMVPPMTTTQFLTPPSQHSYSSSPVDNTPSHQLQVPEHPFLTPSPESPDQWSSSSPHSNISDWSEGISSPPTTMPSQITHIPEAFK

Chain of Notch on primary rat oligodendrocytes and oligodendrocyte precursor cells (rat) (Q07008 19-2531): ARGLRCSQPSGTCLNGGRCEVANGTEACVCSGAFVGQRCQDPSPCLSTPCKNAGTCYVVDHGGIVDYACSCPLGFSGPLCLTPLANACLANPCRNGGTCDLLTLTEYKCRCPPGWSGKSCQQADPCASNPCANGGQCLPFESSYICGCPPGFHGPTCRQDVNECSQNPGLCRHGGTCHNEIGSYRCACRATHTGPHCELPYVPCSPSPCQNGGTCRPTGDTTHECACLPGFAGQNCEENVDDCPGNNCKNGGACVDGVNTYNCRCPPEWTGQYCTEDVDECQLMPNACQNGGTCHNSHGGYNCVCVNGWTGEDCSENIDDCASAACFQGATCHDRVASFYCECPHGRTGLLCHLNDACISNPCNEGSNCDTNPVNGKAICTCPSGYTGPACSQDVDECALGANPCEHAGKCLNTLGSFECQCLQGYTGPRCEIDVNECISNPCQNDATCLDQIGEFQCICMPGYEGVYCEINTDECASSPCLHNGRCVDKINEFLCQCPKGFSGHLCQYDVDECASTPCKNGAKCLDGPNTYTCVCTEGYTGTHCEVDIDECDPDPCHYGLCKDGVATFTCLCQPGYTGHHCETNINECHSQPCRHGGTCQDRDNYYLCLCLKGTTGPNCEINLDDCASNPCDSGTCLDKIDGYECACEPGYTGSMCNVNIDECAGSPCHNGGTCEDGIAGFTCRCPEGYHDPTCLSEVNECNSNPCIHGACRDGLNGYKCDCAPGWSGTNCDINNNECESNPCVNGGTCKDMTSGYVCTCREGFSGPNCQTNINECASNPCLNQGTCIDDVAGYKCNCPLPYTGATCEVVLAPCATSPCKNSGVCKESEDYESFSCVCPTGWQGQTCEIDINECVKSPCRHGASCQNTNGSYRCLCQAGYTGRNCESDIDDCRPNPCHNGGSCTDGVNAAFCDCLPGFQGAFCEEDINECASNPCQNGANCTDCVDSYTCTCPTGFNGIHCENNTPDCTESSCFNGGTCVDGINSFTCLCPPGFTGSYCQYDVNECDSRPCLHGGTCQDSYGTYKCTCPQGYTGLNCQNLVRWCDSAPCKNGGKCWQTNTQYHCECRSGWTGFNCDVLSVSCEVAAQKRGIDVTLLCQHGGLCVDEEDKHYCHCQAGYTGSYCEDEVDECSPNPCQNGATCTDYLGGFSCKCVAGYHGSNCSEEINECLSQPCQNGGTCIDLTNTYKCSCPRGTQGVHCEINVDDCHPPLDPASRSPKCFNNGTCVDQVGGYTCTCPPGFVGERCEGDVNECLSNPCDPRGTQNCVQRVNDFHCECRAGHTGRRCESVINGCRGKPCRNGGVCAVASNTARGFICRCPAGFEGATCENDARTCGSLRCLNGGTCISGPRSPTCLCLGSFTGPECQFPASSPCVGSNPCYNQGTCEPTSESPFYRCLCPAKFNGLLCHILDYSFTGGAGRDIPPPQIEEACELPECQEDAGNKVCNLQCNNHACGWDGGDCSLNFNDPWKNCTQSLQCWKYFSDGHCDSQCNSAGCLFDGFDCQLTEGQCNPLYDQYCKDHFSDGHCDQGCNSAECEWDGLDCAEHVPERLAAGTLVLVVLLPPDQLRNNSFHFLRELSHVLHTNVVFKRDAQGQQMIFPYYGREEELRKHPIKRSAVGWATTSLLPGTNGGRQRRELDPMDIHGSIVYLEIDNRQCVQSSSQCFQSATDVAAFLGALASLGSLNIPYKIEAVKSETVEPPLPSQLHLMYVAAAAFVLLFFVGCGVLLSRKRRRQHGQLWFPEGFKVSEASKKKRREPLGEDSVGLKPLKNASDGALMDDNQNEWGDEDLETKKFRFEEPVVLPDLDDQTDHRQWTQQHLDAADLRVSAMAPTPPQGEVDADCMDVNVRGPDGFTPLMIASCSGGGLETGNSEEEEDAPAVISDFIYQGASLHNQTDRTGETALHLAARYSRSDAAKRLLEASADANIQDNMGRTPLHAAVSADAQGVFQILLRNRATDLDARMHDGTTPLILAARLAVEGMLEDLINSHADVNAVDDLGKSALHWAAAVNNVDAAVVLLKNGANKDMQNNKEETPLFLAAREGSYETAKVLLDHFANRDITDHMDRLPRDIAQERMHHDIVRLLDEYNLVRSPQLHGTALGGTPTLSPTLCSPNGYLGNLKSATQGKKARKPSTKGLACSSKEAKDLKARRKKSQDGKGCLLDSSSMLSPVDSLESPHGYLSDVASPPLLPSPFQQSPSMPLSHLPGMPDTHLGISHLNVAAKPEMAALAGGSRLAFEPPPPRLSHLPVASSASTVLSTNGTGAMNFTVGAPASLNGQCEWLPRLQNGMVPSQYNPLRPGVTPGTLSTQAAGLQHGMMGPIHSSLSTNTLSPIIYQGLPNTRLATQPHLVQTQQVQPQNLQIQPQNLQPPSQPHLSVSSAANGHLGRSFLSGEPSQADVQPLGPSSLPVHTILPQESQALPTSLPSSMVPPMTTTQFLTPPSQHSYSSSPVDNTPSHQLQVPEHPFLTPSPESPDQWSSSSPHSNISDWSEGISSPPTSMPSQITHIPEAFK
Chain of Notch1 of mouse neural stem cells (NSCs) (mouse) (Q01705 19-2531 limits assumed): as the sequence (Q01705 19-2531) above

In assay [1], “NB-3 (recombinant protein, as substrate or soluble; tag not stated at these places) (from UniProt P97528 20-999) (ligand)” yielded an MAG transcripts, real-time PCR, primary OLs of 24 fold and an OPC differentiation into CNPase-positive OLs of 75%. The OL generation from NSCs, flow cytometry in assay [2] turned out to be 2 fold. The MAG staining intensity in assay [3] was found to be 2.5 fold.
